From publication PMC9682848

Target: lamprey serum spherical lectin (LSSL), native, from lamprey serum (Lampetra japonica (endogenous in lamprey serum))
Experiment: cryo-EM structure; native LSSL purified from serum, 2 μg/μL, vitrified; Titan Krios 300 kV; RELION 3.1

- stoichiometry N: 3
Substance: lamprey serum spherical lectin (LSSL), native, from lamprey serum (natural protein)
